T1: Sulfolobus solfataricus SRP54 (SRP54 moiety of SRP54*) (Sulfolobus solfataricus, UniProt Q97ZE7 2-432)
T1 sequence (looked up): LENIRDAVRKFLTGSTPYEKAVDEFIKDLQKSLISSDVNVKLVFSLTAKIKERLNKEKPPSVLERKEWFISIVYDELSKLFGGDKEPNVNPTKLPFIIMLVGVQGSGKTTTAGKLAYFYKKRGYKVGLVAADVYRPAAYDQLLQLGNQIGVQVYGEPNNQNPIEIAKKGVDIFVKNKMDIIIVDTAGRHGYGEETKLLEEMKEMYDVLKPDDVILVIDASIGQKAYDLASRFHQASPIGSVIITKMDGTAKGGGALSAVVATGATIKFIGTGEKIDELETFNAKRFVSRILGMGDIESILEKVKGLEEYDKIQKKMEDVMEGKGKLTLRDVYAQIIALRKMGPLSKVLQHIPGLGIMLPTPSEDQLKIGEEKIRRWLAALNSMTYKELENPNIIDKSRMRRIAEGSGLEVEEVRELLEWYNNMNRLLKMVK


Columns and labels:
SEC = biological target: the molecule itself; assay: SEC
[1] = biological target: T1, Sulfolobus solfataricus SRP54 (SRP54 …); assay: crystal structure

Binder	stoichiometry N (SEC)	binding result [1]
SRP54-signal sequence fusion protein (SRP54*) with an 11mer linker (other, Sulfolobus solfataricus | S. cerevisiae) LENIRDAVRKFLTGSTPYEKAVDEFIKDLQKSLISSDVNVKLVFSLTAKIKERLNKEKPPSVLERKEWFISIVYDELSKLFGGDKEPNVNPTKLPFIIMLVGVQGSGKTTTAGKLAYFYKKRGYKVGLVAADVYRPAAYDQLLQLGNQIGVQVYGEPNNQNPIEIAKKGVDIFVKNKMDIIIVDTAGRHGYGEETKLLEEMKEMYDVLKPDDVILVIDASIGQKAYDLASRFHQASPIGSVIITKMDGTAKGGGALSAVVATGATIKFIGTGEKIDELETFNAKRFVSRILGMGDIESILEKVKGLEEYDKIQKKMEDVMEGKGKLTLRDVYAQIIALRKMGPLSKVLQHIPGLGIMLPTPSEDQLKIGEEKIRRWLAALNSMTYKELENPNIIDKSRMRRIAEGSGLEVEEVRELLEWYNNMNRLLKMVKARSGSGSGSGSKLIRVGIILVLLIWGTVLLLKSIPHH	≥ 2	–
KLIRVGIILVLLIWGTVLLLKSIPHH [signal anchor sequence from S. cerevisiae dipeptidyl-aminopeptidase B (DPAP-B)]	–	binds

Source: paper PMC2897128 (Nature, 2010)
